Measured values as given in the supplement of paper PMC9112550, “Optimization of the antimicrobial peptide Bac7 by deep mutational scanning” (BMC Biology, 2022).

Tested on: Escherichia coli TOP10
Experiment: shrunken log2 fold change of peptide-encoding DNA abundance (4.5 h post-induction vs induction); higher = less antimicrobial activity (less host growth inhibition)
Conditions: time post-induction: 4.5 h; library: site-saturation at positions 5, 18, 19, 20
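Also: peptides expressed intracellularly from a pBAD plasmid library in pooled LB shake-flask culture, induced with 0.3% L-arabinose, DNA abundance read by NGS, three biological replicates, DESeq2 with apeglm shrinkage.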

| Sequence | shrunken log2 fold change |
| --- | --- |
| RRIRLRPPRLPRPRPRPPRDPRP | 0.531 |
| RRIRSRPPRLPRPRPRPMPMPRP | 0.0988 |
| RRIRIRPPRLPRPRPRPPYCPRP | -0.328 |
| RRIRARPPRLPRPRPRPKPPPRP | 0.959 |
| RRIRFRPPRLPRPRPRPCMTPRP | 0.162 |
| RRIRSRPPRLPRPRPRPNIPPRP | -0.492 |
| RRIRCRPPRLPRPRPRPNKLPRP | -0.283 |
| RRIRYRPPRLPRPRPRPRACPRP | -0.143 |
| RRIRVRPPRLPRPRPRPVNNPRP | -0.39 |
| RRIRLRPPRLPRPRPRPIVGPRP | 0.0604 |
| RRIRYRPPRLPRPRPRPTWYPRP | -0.168 |
| RRIRQRPPRLPRPRPRPDVRPRP | -0.023 |
| RRIRHRPPRLPRPRPRPSKFPRP | -0.64 |
| RRIRPRPPRLPRPRPRPRSTPRP | 0.347 |
| RRIRFRPPRLPRPRPRPDAFPRP | -0.491 |
| RRIRMRPPRLPRPRPRPEGFPRP | 2.81 |
| RRIRLRPPRLPRPRPRPNMCPRP | 0.0102 |
| RRIRIRPPRLPRPRPRPEWMPRP | -0.0985 |
| RRIRSRPPRLPRPRPRPPENPRP | 0.679 |
| RRIRYRPPRLPRPRPRPVESPRP | -0.0746 |
| RRIRARPPRLPRPRPRPRLCPRP | 0.574 |
| RRIRNRPPRLPRPRPRPYFQPRP | -0.317 |
| RRIRGRPPRLPRPRPRPLEQPRP | 0.435 |
| RRIRERPPRLPRPRPRPEAYPRP | -0.0132 |
| RRIRPRPPRLPRPRPRPQCKPRP | -0.398 |

| Sequence | shrunken log2 fold change |
| --- | --- |
| RRIRHRPPRLPRPRPRPSDQPRP | 0.0718 |
| RRIRWRPPRLPRPRPRPDKVPRP | 0.0749 |
| RRIRMRPPRLPRPRPRPCPRPRP | 0.167 |
| RRIRFRPPRLPRPRPRPHQDPRP | -0.0339 |
| RRIRMRPPRLPRPRPRPIGFPRP | -0.01 |
| RRIRMRPPRLPRPRPRPPAMPRP | 1.02 |
| RRIRIRPPRLPRPRPRPYMEPRP | -0.677 |
| RRIRNRPPRLPRPRPRPEKGPRP | -0.0357 |
| RRIRARPPRLPRPRPRPKFMPRP | 0.0584 |
| RRIRTRPPRLPRPRPRPYVEPRP | -1.12 |
| RRIRPRPPRLPRPRPRPVEPPRP | 0.352 |
| RRIRRRPPRLPRPRPRPSQIPRP | 0.092 |
| RRIRNRPPRLPRPRPRPAVFPRP | 0.0636 |
| RRIRFRPPRLPRPRPRPMCDPRP | 0.226 |
| RRIRQRPPRLPRPRPRPMVKPRP | 0.0691 |
| RRIRPRPPRLPRPRPRPILFPRP | -0.124 |
| RRIRYRPPRLPRPRPRPCVMPRP | 0.0476 |
| RRIRARPPRLPRPRPRPMIQPRP | 0.0771 |
| RRIRCRPPRLPRPRPRPKRHPRP | 0.341 |
| RRIRIRPPRLPRPRPRPELLPRP | -0.0102 |
| RRIRLRPPRLPRPRPRPVECPRP | 0.0709 |
| RRIRMRPPRLPRPRPRPWSKPRP | 0.0409 |
| RRIRKRPPRLPRPRPRPAPNPRP | 0.631 |
| RRIRGRPPRLPRPRPRPIPVPRP | 0.0104 |
| RRIRRRPPRLPRPRPRPMIIPRP | -0.171 |

| Sequence | shrunken log2 fold change |
| --- | --- |
| RRIRKRPPRLPRPRPRPSVMPRP | 0.163 |
| RRIRYRPPRLPRPRPRPEFDPRP | -0.0306 |
| RRIRKRPPRLPRPRPRPPVVPRP | 0.453 |
| RRIRIRPPRLPRPRPRPLKNPRP | -0.202 |
| RRIRFRPPRLPRPRPRPKQYPRP | -0.43 |
| RRIRFRPPRLPRPRPRPMWNPRP | -0.363 |
| RRIRGRPPRLPRPRPRPTENPRP | 0.682 |
| RRIRCRPPRLPRPRPRPYPFPRP | -0.241 |
| RRIRTRPPRLPRPRPRPPYAPRP | -0.17 |
| RRIRCRPPRLPRPRPRPPVCPRP | 0.222 |
| RRIRQRPPRLPRPRPRPEAIPRP | -0.0935 |
| RRIRYRPPRLPRPRPRPRQEPRP | -0.0183 |
| RRIRMRPPRLPRPRPRPSDVPRP | 0.141 |
| RRIRFRPPRLPRPRPRPQPYPRP | -0.34 |
| RRIRQRPPRLPRPRPRPAHHPRP | 0.138 |
| RRIRRRPPRLPRPRPRPECCPRP | 0.566 |
| RRIRYRPPRLPRPRPRPCPHPRP | -0.0263 |
| RRIRRRPPRLPRPRPRPSLFPRP | 0.196 |
| RRIRRRPPRLPRPRPRPKEKPRP | -0.00936 |
| RRIRQRPPRLPRPRPRPTSHPRP | 0.0206 |
| RRIRSRPPRLPRPRPRPRIDPRP | 0.0938 |
| RRIRHRPPRLPRPRPRPMYKPRP | -0.138 |
| RRIRIRPPRLPRPRPRPFREPRP | -0.0279 |
| RRIRNRPPRLPRPRPRPYSIPRP | -0.534 |
| RRIRQRPPRLPRPRPRPTRQPRP | 0.798 |

| Sequence | shrunken log2 fold change |
| --- | --- |
| RRIRDRPPRLPRPRPRPEIAPRP | 1.31 |
| RRIRTRPPRLPRPRPRPRIAPRP | 0.102 |
| RRIRMRPPRLPRPRPRPIVWPRP | -0.0994 |
| RRIRNRPPRLPRPRPRPLLEPRP | 0.0286 |
| RRIRCRPPRLPRPRPRPSHMPRP | -0.838 |
| RRIRSRPPRLPRPRPRPWTNPRP | -0.0183 |
| RRIRARPPRLPRPRPRPACQPRP | 0.486 |
| RRIRPRPPRLPRPRPRPWPRPRP | 0.766 |
| RRIRARPPRLPRPRPRPTIRPRP | 0.109 |
| RRIRRRPPRLPRPRPRPPWCPRP | 0.294 |
| RRIRSRPPRLPRPRPRPHYIPRP | -0.556 |
| RRIRLRPPRLPRPRPRPYPYPRP | -0.076 |
| RRIRDRPPRLPRPRPRPTKHPRP | -0.0699 |
| RRIRARPPRLPRPRPRPHGPPRP | 0.321 |
| RRIRKRPPRLPRPRPRPWNSPRP | 0.0199 |
| RRIRTRPPRLPRPRPRPHHAPRP | -0.00367 |
| RRIRGRPPRLPRPRPRPNRTPRP | -0.0769 |
| RRIRHRPPRLPRPRPRPGRQPRP | -0.0906 |
| RRIRPRPPRLPRPRPRPMVSPRP | -0.0725 |
| RRIRARPPRLPRPRPRPYGWPRP | 0.0617 |
| RRIRDRPPRLPRPRPRPNYEPRP | -0.252 |
| RRIRKRPPRLPRPRPRPFIEPRP | -0.205 |
| RRIRPRPPRLPRPRPRPNVMPRP | -0.341 |
| RRIRGRPPRLPRPRPRPQRGPRP | 0.119 |
| RRIRDRPPRLPRPRPRPKWVPRP | 0.538 |

| Sequence | shrunken log2 fold change |
| --- | --- |
| RRIRTRPPRLPRPRPRPQYSPRP | -0.056 |
| RRIRARPPRLPRPRPRPGQNPRP | 0.596 |
| RRIRWRPPRLPRPRPRPEPSPRP | 0.39 |
| RRIRHRPPRLPRPRPRPLEQPRP | -0.0138 |
| RRIRWRPPRLPRPRPRPEDDPRP | 1.19 |
| RRIRCRPPRLPRPRPRPFYVPRP | -0.825 |
| RRIRIRPPRLPRPRPRPDYKPRP | -0.231 |
| RRIRVRPPRLPRPRPRPDIDPRP | -0.205 |
| RRIRTRPPRLPRPRPRPHLWPRP | 0.0316 |
| RRIRLRPPRLPRPRPRPRDPPRP | 0.968 |
| RRIRFRPPRLPRPRPRPLFTPRP | -0.239 |
| RRIRWRPPRLPRPRPRPTEYPRP | -0.0755 |
| RRIRRRPPRLPRPRPRPWTIPRP | -0.189 |
| RRIRARPPRLPRPRPRPCDAPRP | 0.344 |
| RRIRRRPPRLPRPRPRPIWQPRP | 0.0175 |
| RRIRDRPPRLPRPRPRPLENPRP | 0.035 |
| RRIRWRPPRLPRPRPRPAIPPRP | 0.332 |
| RRIRFRPPRLPRPRPRPNEFPRP | -0.0262 |
| RRIRERPPRLPRPRPRPPVYPRP | 0.00394 |
| RRIRNRPPRLPRPRPRPWQKPRP | -0.18 |
| RRIRWRPPRLPRPRPRPSYSPRP | -0.705 |
| RRIRFRPPRLPRPRPRPQTWPRP | -0.743 |
| RRIRWRPPRLPRPRPRPNEKPRP | 0.0011 |
| RRIRTRPPRLPRPRPRPGKFPRP | -0.0892 |
| RRIRYRPPRLPRPRPRPKYIPRP | -0.665 |

| Sequence | shrunken log2 fold change |
| --- | --- |
| RRIRLRPPRLPRPRPRPFAHPRP | -0.367 |
| RRIRKRPPRLPRPRPRPGDVPRP | 0.278 |
| RRIRWRPPRLPRPRPRPRGPPRP | 0.931 |
| RRIRCRPPRLPRPRPRPPEIPRP | 0.0794 |
| RRIRPRPPRLPRPRPRPHPIPRP | 0.0162 |
| RRIRWRPPRLPRPRPRPGGSPRP | 0.341 |
| RRIRRRPPRLPRPRPRPSVTPRP | -0.041 |
| RRIRFRPPRLPRPRPRPIYYPRP | -1.24 |
| RRIRVRPPRLPRPRPRPSCPPRP | -0.245 |
| RRIRCRPPRLPRPRPRPVWWPRP | 0.261 |
| RRIRGRPPRLPRPRPRPFFIPRP | 0.0612 |
| RRIRSRPPRLPRPRPRPWKQPRP | -0.00145 |
| RRIRYRPPRLPRPRPRPAPIPRP | 0.226 |
| RRIRRRPPRLPRPRPRPCNQPRP | -0.0711 |
| RRIRIRPPRLPRPRPRPYSTPRP | -1.85 |
| RRIRPRPPRLPRPRPRPICHPRP | -0.0574 |
| RRIRCRPPRLPRPRPRPDDEPRP | 0.33 |
| RRIRHRPPRLPRPRPRPVFCPRP | -0.138 |
| RRIRKRPPRLPRPRPRPHMRPRP | 0.0568 |
| RRIRYRPPRLPRPRPRPAHIPRP | -0.467 |
| RRIRERPPRLPRPRPRPMQQPRP | -0.0321 |
| RRIRNRPPRLPRPRPRPEWGPRP | 0.114 |
| RRIRWRPPRLPRPRPRPLIYPRP | -0.299 |
| RRIRMRPPRLPRPRPRPNVYPRP | -0.368 |
| RRIRLRPPRLPRPRPRPLCDPRP | -0.284 |
